Measured values from patent US20240035036A1 (UNIVERSITE DE GENEVE, published 2024).

T1: Flagellin Modification Protein (FlmG) from Caulobacter crescentus (Caulobacter crescentus, UniProt P21296 1-596)
T1 construct: Natural full-length glycosyltransferase, expressed in cells (C. crescentus, S. fredii NGR234, E. coli); It has an N-terminal TPR domain and a C-terminal GT-B-like glycosyltransferase domain; also called FlbA; CC_1457
T1 sequence: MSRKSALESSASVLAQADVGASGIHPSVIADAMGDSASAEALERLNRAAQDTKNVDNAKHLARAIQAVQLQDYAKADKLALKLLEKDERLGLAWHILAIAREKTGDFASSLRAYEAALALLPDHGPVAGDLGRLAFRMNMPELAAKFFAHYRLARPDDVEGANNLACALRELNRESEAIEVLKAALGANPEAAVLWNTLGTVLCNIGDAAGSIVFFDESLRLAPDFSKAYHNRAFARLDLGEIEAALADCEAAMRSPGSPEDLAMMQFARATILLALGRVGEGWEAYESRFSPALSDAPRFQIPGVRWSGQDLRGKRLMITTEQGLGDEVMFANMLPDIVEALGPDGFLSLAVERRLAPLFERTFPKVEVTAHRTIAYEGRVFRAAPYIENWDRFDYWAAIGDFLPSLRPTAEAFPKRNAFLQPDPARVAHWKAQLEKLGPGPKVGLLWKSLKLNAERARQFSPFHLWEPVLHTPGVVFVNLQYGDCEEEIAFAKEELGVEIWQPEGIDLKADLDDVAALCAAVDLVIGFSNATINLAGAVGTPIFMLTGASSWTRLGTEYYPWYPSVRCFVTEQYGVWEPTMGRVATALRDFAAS

T2: FljK flagellin protein from Caulobacter crescentus
T2 chain: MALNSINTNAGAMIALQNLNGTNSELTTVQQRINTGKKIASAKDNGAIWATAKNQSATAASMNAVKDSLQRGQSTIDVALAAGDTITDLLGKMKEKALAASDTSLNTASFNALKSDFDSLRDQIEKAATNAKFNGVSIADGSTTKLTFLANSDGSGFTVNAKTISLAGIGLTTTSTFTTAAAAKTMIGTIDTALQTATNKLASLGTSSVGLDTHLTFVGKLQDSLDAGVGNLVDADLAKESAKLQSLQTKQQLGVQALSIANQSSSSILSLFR

B1: FljK flagellin protein from Caulobacter crescentus (other)
chain: T2 chain
notes: In the glycosylation experiments it was expressed unfused in cells; also called CC_1461
B2: Flagellin Modification Protein (FlmG) from Caulobacter crescentus (protein)
chain: T1 sequence

Experiments:
[1] = molecular target: T1, Flagellin Modification Protein (FlmG) …; assay: summary of example 1 (BACTH and domain analysis)
[2] = molecular target: T2, FljK flagellin protein from Caulobacter …

Row | Binder | binding result [1] | FljK glycosylation (migration on anti-FljK immunoblot) in E. coli co-expressing FljK, FlmG and the synthetic flm operon [2] | flagellin modification (SDS-PAGE mobility shift of FljK by immunoblot) on co-expression in S. fredii NGR234 [2]
1 | B1 | binds | – | –
2 | B2 | – | in the presence of pUCITD-flm FljK migration is shifted towards higher molecular weight, as in Caulobacter crescentus wild-type (WT) cells | upon co-expression of FlmG, FljK shifted to a species with higher molecular mass
